Article PMC5082905, “Identification of Residues in the Lipopolysaccharide ABC Transporter That Coordinate ATPase Activity with Extractor Function” (mBio, 2016)

How the values were obtained:
[1] = biological target: T1, LptF^E84A (E. coli, UniProt P0AF98 1-366, E84A); test: cell-based or functional assay
T1 sequence (looked up): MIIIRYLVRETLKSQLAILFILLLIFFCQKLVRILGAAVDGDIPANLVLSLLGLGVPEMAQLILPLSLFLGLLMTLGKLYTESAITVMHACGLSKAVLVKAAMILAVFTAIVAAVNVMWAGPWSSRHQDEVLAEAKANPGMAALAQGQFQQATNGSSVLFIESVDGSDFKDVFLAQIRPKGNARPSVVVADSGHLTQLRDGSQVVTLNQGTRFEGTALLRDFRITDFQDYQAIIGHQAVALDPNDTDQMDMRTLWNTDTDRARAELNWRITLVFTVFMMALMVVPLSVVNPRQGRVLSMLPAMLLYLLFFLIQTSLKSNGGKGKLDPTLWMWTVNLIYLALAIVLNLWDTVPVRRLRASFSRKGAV

[2] = biological target: T2, LptG^E88A (E. coli, UniProt P0ADC6 1-360, E88A); test: cell-based or functional assay
T2 sequence (looked up): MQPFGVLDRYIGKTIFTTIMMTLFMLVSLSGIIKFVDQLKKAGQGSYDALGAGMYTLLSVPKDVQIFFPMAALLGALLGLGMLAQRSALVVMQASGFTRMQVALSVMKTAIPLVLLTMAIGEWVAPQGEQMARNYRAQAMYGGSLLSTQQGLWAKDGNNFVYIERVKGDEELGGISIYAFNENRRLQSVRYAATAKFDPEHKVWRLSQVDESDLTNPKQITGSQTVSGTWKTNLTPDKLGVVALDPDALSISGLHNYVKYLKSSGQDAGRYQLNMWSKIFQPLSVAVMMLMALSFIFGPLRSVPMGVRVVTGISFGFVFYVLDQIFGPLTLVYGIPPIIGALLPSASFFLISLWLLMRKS

B1: LptB^WT (enzyme, E. coli, UniProt P0A9V1 1-241, looked up)
chain: MATLTAKNLAKAYKGRRVVEDVSLTVNSGEIVGLLGPNGAGKTTTFYMVVGIVPRDAGNIIIDDDDISLLPLHARARRGIGYLPQEASIFRRLSVYDNLMAVLQIRDDLSAEQREDRANELMEEFHIEHLRDSMGQSLSGGERRRVEIARALAANPKFILLDEPFAGVDPISVIDIKRIIEHLRDSGLGVLITDHNVRETLAVCERAYIVSQGHLIAHGTPTEILQDEHVKRVYLGEDFRL
[1]
  ATPase activity of purified LptB2FG-LptC-His7 complexes relative to the WT complex: ~0.15 % of the ATPase activity of WT complexes
[2]
  ATPase activity of purified LptB2FG-LptC-His7 complexes relative to the WT complex: ~0.15 % of the ATPase activity of WT complexes
